Target: H-2D^b on RMA-S cells (mouse (endogenous in RMA-S))
Experiment: flow cytometry on cells

gp33-wt, LCMV wild-type peptide antigen (gp33 residues 33-41)
half-life of the peptide-MHC complex (Peptide stability): > 1 h

From paper PMC2435421
